# From the emibetuzumab library of Makowski et al. (2022)
# B1: VH:VL chains; a variant is named by its letters at X, in order (parent)
# chain 1: QVQLVQSGAEVKKPGASVKVSCKASGYTFTDYXMHWVRQAPGQGLEWMGXVNPNXXXTTYNQKFEGRVTMTTDTSTSTAYMELRSLRSDDTAVYYCARXNXLDXWGQGTTVTVSS
# chain 2: DIQMTQSPSSLSASVGDRVTITCSVSSSVSSIYLHWYQQKPGKAPKLLIYSTSNLASGVPSRFSGSGSGTDFTLTISSLQPEDFATYYCQVYSGYPLTFGGGTKVEIK
# Variants of: B1
# Assay: yeast display scFab, FACS + sequencing
# How it was run: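 The non-specific binding call was based on sorted and sequenced yeast displaying a heavy-chain CDR mutant scFab library. Labelling used anti-Myc with biotinylated ovalbumin (260 μg/mL in PBSB, 3 h, room temperature) or soluble membrane proteins (130 μg/mL, 20 min on ice), and FACS collected the top 25% and bottom 10% of binders in two replicates. Positive meant present in ≥3 of 4 pooled positive samples and in no negatives, and negative meant the converse.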
row,Variant,non-specific binding call
1,YRAKGAGV,binds
2,SRAGGSLY,binds
3,VRAGGSVA,binds
4,DRAGDAAA,no binding
5,DRAGDAAV,no binding
6,ARAGDDAV,no binding
7,YRAGGVVA,binds
8,FRAGGSLF,binds
9,FRAGGSLY,binds
10,YRAKGAAD,binds
11,YRAKGAAA,binds
12,YRAKGAAV,binds
13,VRAGGFGA,binds
14,YRAGDAAD,no binding
15,YRAGGDWY,binds
16,FRAGGAAA,binds
17,FRAGGAAV,binds
18,VRARGFVV,binds
19,YRARGSGY,binds
20,YRARGSGV,binds
21,ARAGDYLV,no binding
22,VRARGSSF,binds
23,YRAKGSLA,binds
24,YRAKGSLD,binds
25,DRAGDSLD,no binding

row,Variant,non-specific binding call
1,DRAGDSLV,no binding
2,YRARGALV,binds
3,YRARGALS,binds
4,YRAKGAWY,binds
5,FRAGSSWD,binds
6,DRAGDASD,no binding
7,YRAGGVAV,binds
8,VRAGDSLD,no binding
9,VRAGDSLS,no binding
10,VRAGSSLD,no binding
11,YRAGGSSY,binds
12,YRAKGSWD,binds
13,YRAGSAAA,binds
14,YRAGSAAD,binds
15,YRAKGSVD,binds
16,YRAGGASA,binds
17,YRAGSSAD,binds
18,DRAGDSSA,no binding
19,ARAGSAWA,binds
20,DRAGDSWA,no binding
21,DRAGDSWD,no binding
22,VRARGDGY,no binding
23,YRAKDALA,no binding
24,VRAGADVV,no binding
25,VRAGADVY,no binding

row,Variant,non-specific binding call
1,YRAKSAVF,binds
2,YRAGGYGF,binds
3,YRAGGYGD,binds
4,YRAGGYGY,binds
5,DRAGDDSA,no binding
6,FRARGAGS,binds
7,FRARGAGV,binds
8,FRARGAGA,binds
9,VRAGGSGD,binds
10,YRAGDSVD,no binding
11,YRAGGAGY,binds
12,FRAGGSGD,binds
13,FRAGGSGA,binds
14,YRARGSAA,binds
15,YRARGSAD,binds
16,YRARGSAV,binds
17,DRAGDSVD,no binding
18,VRAGSSWD,binds
19,SRARGAGA,binds
20,FRAGGAGV,binds
21,FRAGGAGA,binds
22,ARAGSFWA,binds
23,YRAGGVGF,binds
24,YRAGGVGD,binds
25,YRAGGVGS,binds

row,Variant,non-specific binding call
1,FRAGGSAA,binds
2,VRAGDSSA,no binding
3,VRAGDSSV,no binding
4,DRAGDAGY,no binding
5,DRAGDAGV,no binding
6,DRAGDAGS,no binding
7,DRAGDAGA,no binding
8,YRAGDDVY,no binding
9,YRAGDDVA,no binding
10,YRAKGSGV,binds
11,YRAKGSGD,binds
12,DRAGDAVS,no binding
13,DRAGDAVD,no binding
14,YRAGASLA,binds
15,YRAGDALD,no binding
16,FRAGGVGV,binds
17,YRAKGSSS,binds
18,VRAGGDSF,no binding
19,FRARGSGA,binds
20,FRAGSAWS,binds
21,FRAKGSAD,binds
22,YRAGDSGY,no binding
23,VRAGDSGY,no binding
24,YRAGTAVD,binds
25,YRAGTAVS,binds

row,Variant,non-specific binding call
1,YRAGDFGV,no binding
2,YRAKSSGV,binds
3,YRAGTSGD,binds
4,YRAKGYGA,binds
5,VRAGDDAV,no binding
6,ARAKTSWV,binds
7,YRARDDVF,no binding
8,YRARGSSS,binds
9,SRARDFGY,no binding
10,YRAGGAAF,binds
11,YRAGGFGY,binds
12,YRAGGFGS,binds
13,YRAKSSSS,binds
14,YRARGAGV,binds
15,YRARGAGA,binds
16,YRARGAGF,binds
17,YRARGAGY,binds
18,YRARGAGS,binds
19,VRAGGDAV,no binding
20,VRAGGDAA,no binding
21,YRAGGDSA,no binding
